What was measured:
[1] = molecular target: ポドプラニン (ポドプラニン提示CHO細胞, 種の記載なし); test: flow cytometry; cells and species not named at this place
[2] = molecular target: ポドプラニン (ポドプラニン提示CHO細胞, 種の記載なし); test: binding to podoplanin-displaying CHO cells; reference clone 1 scFv

Kd [1]: 1.7 nM
fold increase of affinity against the scFv (clone 1) [2]: 100 fold
B1: clone 1から作製したdiabody (protein)
chain: EVQLKESGGGLVQSGGSLRLSCAASGFSLTDYGVNWVRQAPGKGLEWVGVIWGGGNTYYNSALKSRFTISKDNSKNTLYLQMNSLRAEDTAVYYCAKHRGAWGQGTLVTVSAGGGGSDIVMTQSPSTLAVSLGEKATINCKSSKSLLNSGNQKNYLIWYQQKPGQPPKLLIYGASTRESGVPDRFSGSVSGTDFTLTISSLQAEDLAVYYCQNDHTYPLTFGQGTKVEIKRTV

Reference: JP2020002075A
